Experimental data as given in patent US20110110945A1, “Immunoglobulin Fusion Proteins and Methods of Making” (TransTech Pharma, Inc., priority 2007, published 2011).
“Also recorded” adds a separate entry of the source.

What was measured:
[1] = tested on: Zucker diabetic rats, balloon injury of left common carotid artery; test: Diabetic rat model of restenosis (balloon injury of left common carotid artery); format: in vivo; conditions: for Intimal area / Medial area: IP, 21 days, mean±SD
Protocol: For example, fusion proteins of the present invention comprising a RAGE ligand binding site have been used in the treatment of diabetes related pathology. […] Use of the RAGE fusion proteins in the treatment of diabetes related pathology is illustrated in Table 1.
In these experiments, balloon injury of left common carotid artery was performed in Zucker diabetic and nondiabetic rats using standard procedure. […] A maintenance dose was delivered every other day until day 7 after injury (i.e., at day 1, 3, 5 and 7 after injury). The maintenance dose was high=1 mg/animal for one group, or low=0.3 mg/animal for the second group. To measure vascular smooth muscle cell (VSMC) proliferation, animals were sacrificed at 4 days and 21 days after injury.
For the measurement of cell proliferation, 4 day animals received intraperitoneal injection of bromodeoxyuridine (BrDdU) 50 mg/kg at 18, 12, and 2 hours before euthanasia. After sacrifice, the entire left and right carotid arteries were harvested. Specimens were stored in Histochoice for at least 24 hours before embedding. Assessment of VSMC proliferation was performed using mouse anti-BrdU monoclonal antibody. A fluorescence labeled goat anti-mouse secondary antibody was applied. The number of BrdU-positive nuclei per section were counted by two observers blinded to the treatment regimens.
The remaining rats were sacrificed at 21 days for morphometric analysis. Morphometric analyses were performed by an observer blinded to the study groups, using computerized digital microscopic planimetry software Image-Pro Plus on serial sections, ([…]) carotid arteries stained by Van Gieson staining All data were expressed as mean±SD. Statistical analysis was performed with use of SPSS software. Continuous variables were compared using unpaired t tests. A values of P≦0.05 was considered to be statistically significant.

[2] = biological target: T1, S100b (Homo sapiens, UniProt P04271); test: In vitro ligand binding assay (ELISA), immobilized S100b; conditions: ligand 5 micrograms per well; dilutions of initial fusion protein solution; FIG. 7
T1 sequence (P04271 1-92): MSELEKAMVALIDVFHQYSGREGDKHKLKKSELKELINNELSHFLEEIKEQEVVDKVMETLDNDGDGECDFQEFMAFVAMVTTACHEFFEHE
Protocol: For example, the fusion protein may be used in a binding assay to identify potential ligands that bind to the non-immunoglobulin protein. In one example embodiment of such a binding assay, a known ligand may coated onto a solid substrate (e.g., Maxisorb plates) at a biologically relevant concentration (e.g., about 5 micrograms per well), where each well contains a total volume of about 100 microliters (μL). The plates may be incubated at 4° C. overnight to allow the ligand to bind to the substrate. Alternatively, shorter incubation periods at higher temperature (e.g., room temperature) may be used. After a period of time to allow for the ligand to bind to the substrate, the assay wells may be aspirated and a blocking buffer (e.g., 1% BSA in 50 mM imidizole buffer, pH 7.2) may be added to block nonspecific binding. […] The fusion protein bound to the immobilized ligand may be detected in a variety of ways. […] The bound complex may be detected by adding a substrate for the secondary antibody complex, e.g., the alkaline phosphatase substrate, para-nitrophenylphosphate (PNPP), and measuring conversion of PNPP to para-nitrophenol (PNP) as an increase in absorbance at 405 nm. […] In the absence of ligand (i.e., coating with only BSA) there was no increase in absorbance. The binding assay of the present invention may be used to quantify ligand binding. […]

[3] = Pharmacokinetic profile of TTP-4000 after IV injection; format: in vivo, monkeys; conditions: single IV bolus 5 mg/kg; plasma; once TTP-4000 has saturated its ligands; 2 animals; FIG. 11
Protocol: Following collection, the tubes were placed on wet ice (maximum 30 minutes) until centrifugation under refrigeration (at 2 to 8° C.) at 1500×g for 15 minutes. Each harvested plasma sample was then stored frozen (−70° C.±10° C.) until assayed for RAGE polypeptide using an ELISA at various time-points following the injection, as described in Example 6.
In FIG. 11 each curve represents a different animal under the same experimental conditions.
Initially, 50 uL of the RAGE specific monoclonal antibody 1HB1011 at a concentration of 10 ug/mL in 1×PBS pH 7.3 is coated on plates via overnight incubation. When ready for use, plates are washed three times with 300 uL of 1× Imidazole-Tween wash buffer and blocked with 1% BSA. […] The samples are allowed to incubate at room temperature for one hour. After incubation, the plates are plates are washed three times. A Goat Anti-human IgG1 1 (Sigma A3312) AP conjugate in 1×PBS with 1% BSA is added and allowed to incubate at room temperature for 1 hour. The plates are washed three times. Color was elucidated with paranitrophenylphosphate.

[4] = tested on: male C57BL/6 mice, cerebral ischemia/reperfusion; test: Animal model of stroke (ischemia and reperfusion, infarct volume); format: in vivo; conditions: mouse stroke model
Protocol: In this model, the middle carotid artery of a mouse is ligated and then reperfused to form an infarct.
In this model, the middle carotid artery of a mouse was ligated for 1 hour followed by 23 hours of reperfusion at which point the mice were sacrificed and the area of the infarct in the brain was assessed.
Mice were injected intraperitoneally, 1 hour after the initiation of ischemia. Mice were subjected to one hour of cerebral ischemia followed by 24 hours of reperfusion. To induce ischemia, each mouse was anesthetized and body temperature was maintained at 36-37° C. by external warming. The left common carotid artery (CCA) was exposed through a midline incision in the neck. […] After the nylon suture had been in place for 1 hour, the animal was re-anesthetized, rectal temperature was recorded and the suture was removed and the incision closed.
Infarct volume was determined by anesthetizing the animals with an intraperitoneal injection of sodium pentobarbital (50 mg/kg) and then removing the brains. […] The infarct area in each section was determined with a computer-assisted image analysis system, consisting of a Power Macintosh computer equipped with a Quick Capture frame grabber card, Hitachi CCD camera mounted on a camera stand. […] The images were captured and the total area of infarct was determined over the sections. […] The results are expressed as the mean±standard deviation (SD). […]

[5] = High dose 1.0 mg/animal qod × 4, loading dose 3 mg/animal
[6] = Low dose 0.3 mg/animal qod × 4, loading dose 3 mg/animal

B1: TTP-4000: RAGE fusion protein: V and C1 domains of human RAGE (amino acids 1-251) linked to hinge-less CH2 and CH3 of human IgG1; SEQ ID NO: 16/18 (protein)
chain 1: MAAGTAVGAWVLVLSLWGAVVGAQNITARIGEPLVLKCKGAPKKPPQRLEWKLNTGRTEAWKVLSPQGGGPWDSVARVLPNGSLFLPAVGIQDEGIFRCQAMNRNGKETKSNYRVRVYQIPGKPEIVDSASELTAGVPNKVGTCVSEGSYPAGTLSWHLDGKPLVPNEKGVSVKEQTRRHPETGLFTLQSELMVTPARGGDPRPTFSCSFSPGLPRHRALRTAPIQPRVWEPVPLEEVQLVVEPEGGAVAPPSVFLFPPKPKDTLMISRTPEVTCVVVDVSHEDPEVKFNWYVDGVEVHNAKTKPREEQYNSTYRVVSVLTVLHQDWLNGKEYKCKVSNKALPAPIEKTISKAKGQPREPQVYTLPPSRDELTKNQVSLTCLVKGFYPSDIAVEWESNGQPENNYKTTPPVLDSDGSFFLYSKLTVDKSRWQQGNVFSCSVMHEALHNHYTQKSLSLSPGK
chain 2: ENITARIGEPLVLKCKGAPKKPPQRLEWKLNTGRTEAWKVLSPQGGGPWDSVARVLPNGSLFLPAVGIQDEGIFRCQAMNRNGKETKSNYRVRVYQIPGKPEIVDSASELTAGVPNKVGTCVSEGSYPAGTLSWHLDGKPLVPNEKGVSVKEQTRRHPETGLFTLQSELMVTPARGGDPRPTFSCSFSPGLPRHRALRTAPIQPRVWEPVPLEEVQLVVEPEGGAVAPPSVFLFPPKPKDTLMISRTPEVTCVVVDVSHEDPEVKFNWYVDGVEVHNAKTKPREEQYNSTYRVVSVLTVLHQDWLNGKEYKCKVSNKALPAPIEKTISKAKGQPREPQVYTLPPSRDELTKNQVSLTCLVKGFYPSDIAVEWESNGQPENNYKTTPPVLDSDGSFFLYSKLTVDKSRWQQGNVFSCSVMHEALHNHYTQKSLSLSPGK
modifications: synthetic four domain RAGE-Fc IgG fusion protein; synthetic four domain RAGE-Fc IgG fusion protein having signal sequence removed
In the case of B1, the “vascular smooth muscle cell proliferation (BrdU-positive nuclei), in words” value ([1]; 4 days after injury, dose-responsive) is reported as “significantly reduced”, the Intimal area [1, 5] is reported as 0.16 ± 0.02 mm^2 and the Medial area [1, 5] is reported as 0.11 ± 0.01 mm^2. For the same molecule, the Intimal area [1, 6] was 0.18 ± 0.04 mm^2, the Medial area [1, 6] was 0.11 ± 0.02 mm^2 and the “binding to immobilized S100b (increase in absorbance at 405 nm)” value [2] was “able to bind; also recorded: specifically interact”. The terminal half-life [3] was “greater than 300 hours” and the “reduction in infarct volume / area of infarct compared to sRAGE, in words” value [4] was “significantly greater reduction in infarct volume; also recorded: more efficacious than sRAGE”.
